Test results as given in the nanobody polyreactivity screen of Harvey et al. (2022).

Experiment: yeast display, Sf9 membrane polyspecificity reagent, FACS + sequencing; frameworks hold sequencing errors
Method in brief: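 In a synthetic yeast display library (Saccharomyces cerevisiae BJ5465), nanobody expression was induced with galactose for 36–48 hours. FACS gates were set low and high (top ~1%) using anti-HA fluorescence for expression and streptavidin fluorescence for binding of the Sf9 membrane reagent. Each polyreactivity label is drawn from the gate of origin.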

QVQLVESGGGLVQAGGSLRLSCAASGSIFKIYAMGWYRQAPGKERELVASITGSGGSTYYADSVKGRFTISRDNAKNTVYLQMNSLKPEDTAVYYCAADVVRSNFYGTFLYDYDYWGQGTQVTVSS
polyreactivity (PSR sort gate): low polyreactivity

QVQLVESGGGLVQAGGSLRLSCAASGFTITDYAMGWYRQAPGKVRELVAAITWSGGSTYYADSVKGRFTLSRDNAKNTVYLQMNSLKPEDTAVYYCNKVTEGLKMDYWGQGTQVTVSS
polyreactivity (PSR sort gate): low polyreactivity

QVQLVESGGGLVQAGGRLRLSCAASGSTFGYYAMGWNRQAPGKERELVAAISSRDGSTFYADSVKGRFTISRDNAKNTVFLQMNSLKPDDTAVYYCAKVFFHTPIVPEYDYCGQGTQVTVSS
polyreactivity (PSR sort gate): low polyreactivity

QVQLVESGGGLVQAGGSLRLSCGASGRNFPGNAMGWYRQAPGKEREFVAVITSRTGNTYYADSVKGRFTISRDTAKNTVYLQMNSLKPEDSAVYYCNGEQYIWSEDYWGQGTQVSVSS
polyreactivity (PSR sort gate): low polyreactivity

QVQLVESGGGLFQAGGSLRLSCAASGFTFSFNTMGWYRQAPVKERELVAAIRNNGGGTNYADSVKGRFTISRDKAMNTVYLQMNSLKPEDTAVYYCAADRIYAWFGRLYYWGQGTQVTGSS
polyreactivity (PSR sort gate): low polyreactivity

QVQLVESGGGLVQAGGSLRLSCAASGSIIGVNAMGWYRQAPGKERELVAAISSTGGSTYYADSVKGRFTISRDNAKNTVYLQMNSLKPEDTAVYYCNTDYSKSIGDGYAGFDYWGQGTQVTVSS
polyreactivity (PSR sort gate): low polyreactivity

QVQLVESGGGLVQAGGSLRLSCAASGSTFDVYVMGWYRQAPGKERELVAAISSGDDTNYADSVKGRFTISRDNAKNTVYLQMNSLKPEDTAVYYCAAAYYYYVSGWFDYWGQGTQVTVSS
polyreactivity (PSR sort gate): low polyreactivity

QVQLVESGGGLVQAGGSLRLSCAASGFIFYLYTMGWYRQAPGKERELVAAITGGGGTYYADSVKGRFTISRDNAKNTVYLQMNSLKPEDTAVYYCAAEYYLYLWDEYDYWGQGTQVTVSS
polyreactivity (PSR sort gate): high polyreactivity

QVQLVESGGGLVQAGGSLRLSCAASGRIFGTYAMGWYRQAPGKERELVASISYSDGSTYADSVKGRFTISRDNAKNTVYLQMNSLKPEDTAVYYCAADVYYYAQSEDGYWGQGTQVTVSS
polyreactivity (PSR sort gate): low polyreactivity

QVQLVESGGGLVQAGGSLRLSCAASGITFRYYAMGWDRQAPGKERELVAAINRGGDSTYYADSVKGRFTISRDNAKNTVYLQMNSLKPEDTAVYYCAASSYYRGTFYPSYYWGQGTQVTVSS
polyreactivity (PSR sort gate): high polyreactivity

QVQLVESGGGLVQAGGSLRLSCAASGITFDYYAMGWYRQAPGKERELVAAIDTGGSTNYADSVKGRFTISRDNAKNTVYLQMNSLKPEDTAVYYCAKDPHGSDFGYWGQGTQVTVSS
polyreactivity (PSR sort gate): low polyreactivity

QVQLQERGGGLVQTGGSLSLSCEASGTISYSDSMCWYRQAPRKERELVAAIARGGITNYAYSVKGRFTISRDNAKNTVYLQMNSLKPEDTAVYYCADLSSRYAQFDYWGQGTQVTVSS
polyreactivity (PSR sort gate): low polyreactivity

QVQLVESGGGLVQAGGSLRLRCAASGSTSAYYAMGWYRQAPGKERELVAAISWSGGRTYSADSVKGRFTISRDNAKNTVYLQMNSLKPEDTAVYYCAARFWFTKGYDYWGQGTQVTVSS
polyreactivity (PSR sort gate): high polyreactivity

QVQLVESGGGLVQAGGSLRLSCAASGFTFAYYDMGWYRQAPGKERELVAAITWDGGSTYYADSVKGRFTISRDNAKNTVYLQMNSLKPEDTAVYYCAAPSGPYGYDYWGQGTQVTVSS
polyreactivity (PSR sort gate): high polyreactivity

QVQLVESGGGLVQAGGSLRLSCAASGSIFRYNAMGWYRKAPGKERELVAAISYRGGSTYYADSVKGRFTISRDNAKITVYLQINSLKPEDTAVYYCAAAVQYSGYRFNYWGQGTQVTVSS
polyreactivity (PSR sort gate): high polyreactivity

QVQLVESGGGLVQAGGSLRLSCAASGRIFSGNGMGWYRQATGKERELVASITWSGTSTYYADSVKGGFTISRDNAKNTVYLQMNSLKPEDTAVYYCNTRTSRRIWYSKSGKRYDYWGQGTQVTVSS
polyreactivity (PSR sort gate): high polyreactivity

QVQLVESGGGLVQAGGSLRLSCAASGSSFYYYTMGWYRQAPGKEMELVAAITYSGGSTRYADSVKGRFTISRDNAKNTVYLQMNSLKPEDTAVYYCAAELTEWTNGFDYWGQGTQVTVSS
polyreactivity (PSR sort gate): high polyreactivity

QVQLVESGGGLDQAGGSLRLSCAASGSTIHYYAMGWYRQAPRKERELVAVISSGGSTYYADSVKGRFTISRDNAKNTVYLQMNSLNPEDTAVYYCAKDYRDYNRGWYDYWGQGTQVTVSS
polyreactivity (PSR sort gate): low polyreactivity

QVQHVESGGGLVQAGGSLRLSCAASGITYGRYTMGWYRQAPGKERELVAAITNGDITYYADSVKGRFTISRDNAKNTVYLQMNSLKQEDTAVYYCAADRYFWYDYWGQGTQVTVSS
polyreactivity (PSR sort gate): high polyreactivity

QVQLVESGGGLVKAGGSLRLSCAASGFIFVYYAMGWYRQAPGKERELVARISWRGGRTYYADSVKGRFTISRDNAKNTVYLQMNSLKPEDTAVYYCNADFWNSHVWYDYWGQGTQVTVSS
polyreactivity (PSR sort gate): high polyreactivity

QVQLVESGGGLVQAGGSLRLRCAASGRIFRPYTMGWYRQAPGKERELVAGITSSGGGTYYADSVKGRFTISRDNAKNTVYLHMNSLKPEDSAVYYCNRRGWSRTHQYDYWGQGTQVTVSS
polyreactivity (PSR sort gate): high polyreactivity

QVQLVESGGGLVQAGGSLRLSCAASGRTFSRYAMGWYRQAPGKERELVAAITRSGGSTYYADSVKGRFTISRDNAKNTVYLQMNSLKPEDTAVYYCATERNLRNYDYWGQGTQVTVSS
polyreactivity (PSR sort gate): high polyreactivity

QVQLVESGGGLVQAGGSLRISCAPSGLIFKYNAMGWYRQAPGKERDLVADINRSGGSTYYADSVKCRFTISRDNAKNTVYLQMNSLKPEDTEVYYCAAERDSLYWVLFGYWGQGTQVTVSS
polyreactivity (PSR sort gate): low polyreactivity

QLQLVESGGGLVQAGGSLRLSCAASGSTFVLYAKGWYRQAPGKERELVAAITWSGDDTYYADSVKGRFTISRDNEKNTVYLQMTSLKPEDTAVYSCAADGRGDLYVWPGIGGDYWGQGTQVTVSS
polyreactivity (PSR sort gate): low polyreactivity

QVQLVESGGGLVQAGGSLRLSCAASGSTFSYYAMGWYRQAPGKERELVASISSGGSTNYADSVKGRFTISRANAKNTVYLQMNSLKPEDSAVYYCKADSWTVNRRYYYYRYEYWGQGSQVTVSS
polyreactivity (PSR sort gate): low polyreactivity

QVHLVESGGGLVQAGGSLRLSCAASGSTIRSYAMGWNRQAPGKERELVARIAYSSGGTYYADSVKGRFTISRDNAKNTVYLQMNSLKPEDTAVYYCAKPSPITSYPRFDYWGQGTQVTVSS
polyreactivity (PSR sort gate): high polyreactivity

QVQLVESGGGLVQAGGSLRLSCAASGRIFRSYAMGWYRQAPGKERELFAAISYSGGSTYYADSVKGRFTISRDNAKNTVYLQMNSLKPEDTAVYYCAALPGERKYIYYGYDYWGQGTQVTVSS
polyreactivity (PSR sort gate): high polyreactivity

QVQLVESGGGLVQAGGSLRLSCAASGNTVKGYAMGWYRQAPGKERELVAAISWSGSSTYYADSVKGRFTISRDNAKNTVYLQMNSLKPEDTAVYYCNRKYLGRYASVYGYGYWGQGTQVTVSS
polyreactivity (PSR sort gate): high polyreactivity

QVQLGESGGGLVQAGGSLRLSCAASGRTFGPYAMGWYRQAPGKERELVAAIRYIDDSTFYADSVKGRFTISRDTAKNTVYLQMNSLKPEDTAVYYCAARPYPHSAYEGDYWGRGTQVTVSS
polyreactivity (PSR sort gate): low polyreactivity

QVQLVESGGGLVQAGGSLRLSCAASGFIFYIYPMGWYRQAPGKERELLAAISWNGGSTYYADSVKGRFTISRDNAKNTVYLQMNSLNPEDTAVFYCATLARYRYGTGRFDYWGQGTQVTVSS
polyreactivity (PSR sort gate): high polyreactivity

QFQLVESGGGLVQAGGSLRLSCAPSGSTFVSYSMAWYRQEPGKERQFVAAITWSGGSTYYADSVKGRFTISRDNANNTVYLQMNSLKPEDTAVYYCARPYRGSPRYYYWGQGTQVTLSS
polyreactivity (PSR sort gate): high polyreactivity

LVQLVESGGGLVQAGGSLRLSCAASGFIFFGEYVMGWYRQAPGKEREFVAAITDSDGSTYYADSVKGSFTISRDNGKNTVYLQMISLKPEDTAVYYCAAERVYSDMDYWGQGTQVTVSS
polyreactivity (PSR sort gate): low polyreactivity
